From US20070213263A1, “Methods And Compositions Using Adiponectin For Treatment Of Cardiac Disorders And For Stimulation Of Angiogenesis” (The Trustees of Boston University, priority 2003, published 2007) come the findings set out here.

One assay has as its system rat cardiac myocytes. Put plainly: Agonist-stimulated hypertrophy of cultured neonatal rat ventricular myocytes. It counts as cell-based. As for the experimental part: [^3H] leucine incorporation was determined as previously described 74.
For histological analysis, the mice were sacrificed and LV tissue was obtained at 7 days after TAC. Tissue was embedded in OCT compound (Miles, Elkhart, Ind.) and snap-frozen in liquid nitrogen. Tissue slices (5 μm in thickness) were prepared. Tissue sections were stained with hematoxylin and eosin or with Masson trichrome. The myocyte cross sectional area was calculated by measuring 200 cells per section. To determine sarcomeric F-actin organization, cultured myocytes were stained with FITC-conjugated phalloidin (Sigma, St. Louis, Mo.).

Assay [1] concerns HUVECs. Put plainly: Tube formation assay, HUVECs on Matrigel. Conditions: adiponectin 30 μg/ml, VEGF 20 ng/ml, 18 h. It counts as cell-based, human.
Description: The formation of vascular-like structures by HUVECs on growth factor-reduced Matrigel (Becton Dickinson) was performed as previously described^28. Twenty-four-well culture plates were coated with Matrigel according to the manufacturer's instructions. […] The degree of tube formation was quantified by measuring the length of tubes in 3 randomly chosen fields from each well using the angiogenic activity quantification program (Kurabo, Osaka, Japan). […]
The test system of assay [2] is HUVECs. Put plainly: Migration assay (modified Boyden chamber). In kind it is cell-based, human. Conditions: adiponectin 30 μg/ml, VEGF 20 ng/ml, 4 h.
Description: Migration activity was measured using a modified Boyden chamber assay. Serum-starved cells were trypsinized and resuspended in EGM-2 with 0.5% FBS. Cell suspension (250 μl, 2.0×10^4 cells/well) were added to the transwell fibronectin-coated insert (6.4 mm diameter, 3.0 μm pore size, Becton Dickinson, Franklin Lakes, N.J.). Then 750 μl of EGM-2 with 0.5% FBS supplemented with adiponectin (30 μg/ml), VEGF (20 ng/ml) or bovine serum albumin (BSA) (30 μg/ml) were added to lower chamber and incubated for 4 h. Migrated cells on the lower surface of the membrane were fixed, stained with Giemsa stain solution and eight random microscopic fields per well were quantified. All assays were performed in triplicate.
For the next assay, the system named is endothelial cells. Put plainly: Cell-wounding assay (unpublished data). It counts as cell-based.
The test system of assay [3] is AMPK (Thr 172 of α subunit). In words: Western blot, AMPK phosphorylation in HUVECs. In kind it is cell-based, human. Conditions: adiponectin 30 μg/ml.
Description: (§1) Human umbilical vein endothelium cells (HUVECs) were cultured in endothelial cell growth medium-2 (EGM-2, San Diego, Calif.). Before each experiment, cells were placed in endothelial cell basal medium-2 (EBM-2, San Diego, Calif.) with 0.5% fetal bovine serum (FBS) for 16 h for serum-starvation. Experiments were performed by the addition of the indicated amount of mouse recombinant adiponectin, VEGF or vehicle for the indicated lengths of time. In some experiments, HUVECs were infected with adenoviral constructs encoding dominant-negative AMPKα2^28, dominant-negative AKT1^19 or green fluorescence protein (GFP) at a multiplicity of infection (MOI) of 50 for 24 h. In some experiments, HUVECs were pretreated with LY294002 (10 μM) or vehicle for 1 h before stimulation with adiponectin. Cell lysates were resolved by SDS-PAGE. The membranes were immunoblotted with the indicated antibodies at a 1:1000 dilution followed by the secondary antibody conjugated with horseradish peroxidase (HRP) at a 1:5000 dilution. ECL-PLUS Western Blotting Detection kit (Amersham Pharmacia Biotech, Piscataway, N.J.) was used for detection.
Another assay deals with Akt (Ser 473). Put plainly: Western blot, Akt phosphorylation in HUVECs. It counts as cell-based, human. Conditions: adiponectin 30 μg/ml, time course. Background: In western blotting, separated proteins are transferred to a membrane and probed.
The test system of assay [4] is ERK (Thr 202/Tyr 204). Put plainly: Western blot, ERK phosphorylation in HUVECs. In kind it is cell-based, human. The conditions noted are these: adiponectin 30 μg/ml, time course. As for the experimental part: Human umbilical vein endothelium cells (HUVECs) were cultured in endothelial cell growth medium-2 (EGM-2, San Diego, Calif.). Before each experiment, cells were placed in endothelial cell basal medium-2 (EBM-2, San Diego, Calif.) with 0.5% fetal bovine serum (FBS) for 16 h for serum-starvation. Experiments were performed by the addition of the indicated amount of mouse recombinant adiponectin, VEGF or vehicle for the indicated lengths of time. In some experiments, HUVECs were infected with adenoviral constructs encoding dominant-negative AMPKα2^28, dominant-negative AKT1^19 or green fluorescence protein (GFP) at a multiplicity of infection (MOI) of 50 for 24 h. In some experiments, HUVECs were pretreated with LY294002 (10 μM) or vehicle for 1 h before stimulation with adiponectin. Cell lysates were resolved by SDS-PAGE. The membranes were immunoblotted with the indicated antibodies at a 1:1000 dilution followed by the secondary antibody conjugated with horseradish peroxidase (HRP) at a 1:5000 dilution.

The next assay concerns eNOS (Ser 1179). In words: Western blot, eNOS phosphorylation in HUVECs. In kind it is cell-based, human. The conditions noted are these: adiponectin 30 μg/ml.
Assay [5] deals with CD31-positive cells in Matrigel plugs. Put plainly: Mouse angiogenesis assay (Matrigel plug). It counts as in vivo, C57BL mice. Conditions: adiponectin 100 μg/ml in plug, subcutaneous, 14 days. As for the experimental part: The formation of new vessels in vivo was evaluated by Matrigel plug assay as described previously^28. For these experiments, 400 μl of Matrigel containing adiponectin (100 μg/ml) or vehicle was injected subcutaneously into the abdomen of C57BL mice. Mice were sacrificed 14 days after the injection. The Matrigel plugs with adjacent subcutaneous tissues were carefully recovered by en bloc resection, fixed in 4% paraformaldehyde, dehydrated with 30% sucrose, and embedded in OCT compound (GTI Microsystems, Tempe, Ariz.) in liquid nitrogen. Immunohistostaining for CD31 (PECAM-1: Becton Dickinson) were performed on adjacent frozen sections. Primary antibody was used at a 1:50 dilution followed by incubation of secondary antibody (HRP-conjugated anti-rat IgG at a 1:100 dilution). The AEC Substrate Pack (Biogenex, San Ramon, Calif.) was used for detection. CD31-positive capillaries were counted in 4 randomly chosen low-power (×100) microscopic fields.

The subject of assay [6] is cornea neovascularization. In words: Rabbit corneal angiogenesis assay. It counts as in vivo, New Zealand white rabbits. Conditions: day 7. As for the experimental part: Rabbit corneal assay was performed with minor modification as previously described^33. Male New Zealand white rabbits weighing 3.0-3.9 kg were used. Two pockets, about 2×3 mm size and 5 mm apart, were surgically prepared in the cornea extending toward a point 2 mm from the limbus. Hydron pellets, which contain indicated amount of adiponectin, VEGF (100 ng) or PBS and enables the slow release of it^34, were implanted into the pocket. On day 7 after surgery, eyes were photographed and cornea neovascularization was examined in a single blind manner. The angiogenic activity was evaluated on the basis of the number and growth rate of newly formed capillaries. An angiogenic score was calculated (vessel density×distance from limbus)^32. A density value of 1 corresponded to 0-25 vessels per cornea, 2 from […], 3 from 50-75, 4 from 75-100 and 5 for >100 vessels.

For assay [7], the system named is ERK (Thr 202/Tyr 204). In words: Western blot, ERK phosphorylation in cultured cardiac myocytes. It counts as cell-based, rat.
Assay [8] concerns AMPK (Thr 172 of the α subunit). Put plainly: Western blot, AMPK phosphorylation in cultured cardiac myocytes. It counts as cell-based, rat. The conditions noted are these: adiponectin 30 μg/ml, time course.
Where [9] appears, read: adiponectin 30 μg/ml pretreatment, Pro 2 μM, NE 1 μM, 48 hours.

Description for Akt (Ser 473): as §1
Description for eNOS (Ser 1179): as §1

Regarding `N#CC(=C(/N)Sc1ccccc1N)/C(C#N)=C(\N)Sc1ccccc1N` [U0126, reference compound], the “reduction of αAR-induced hypertrophy” value with rat cardiac myocytes (p<0.01 vs. control) amounted to 82.1±7.8%.
VEGF [reference compound]: in the assay on HUVECs [1], the “formation of capillary-like tubes (tube length)” value is listed as “a trend toward increased tube length in the VEGF-treated cultures relative to adiponectin, but this was not statistically significant”. The HUVEC migration entry with HUVECs [2] was “a trend toward greater migration with VEGF compared to adiponectin, but this was not statistically significant”.

B1: adiponectin: Recombinant histidine-tagged mouse adiponectin (amino acids 15-247) expressed in bacteria; adipocyte specific cytokine (protein, UniProt Q15848 19-244, looked up)
Adiponectin: ETTTQGPGVLLPLPKGACTGWMAGIPGHPGHNGAPGRDGRDGTPGEKGEKGDPGLIGPKGDIGETGVPGAEGPRGFPGIQGRKGEPGEGAYVYRSAFSVGLETYVTIPNMPIRFTKIFYNQQNHYDGSTGKFHCNIPGLYYFAYHITVYMKDVKVSLFKKDKAMLFTYDQYQENNVDQASGSVLLHLEVGDQVWLQVYGEGERNGLYADNDNDSTFTGFLLYHDTN
As to B1, in the assay on HUVECs [1], the “formation of capillary-like tubes (tube length)” value is “promoted the formation of capillary-like tubes in a manner similar to VEGF”. Further, the HUVEC migration result in the assay on HUVECs [2] is “significantly stimulated HUVEC migration”. Also, in the assay on endothelial cells, the “endothelial migration in cell-wounding assay” value is on record as “induced the endothelial migration”. In addition, the “time of maximal AMPK phosphorylation” value in [3] stood at 15 min. Besides, in [3] (time course), the “phosphorylation of AMPK” value was “enhanced the phosphorylation of AMPK in a time-dependent manner”. The Akt phosphorylation entry in the assay on Akt (Ser 473) is “time-dependent increase in Akt phosphorylation”. For the same molecule, the “phosphorylation of ERK” value with ERK (Thr 202/Tyr 204) [4] is reported as “no effect on the phosphorylation of ERK”. Besides, the eNOS protein levels result in the assay on eNOS (Ser 1179) is reported as “no effect on eNOS protein levels”. Besides, the “eNOS phosphorylation at Ser 1179” value with eNOS (Ser 1179) (time course) is “time-dependent increase in eNOS phosphorylation”. For the same molecule, in assay [5], the “density of CD31-positive cells in Matrigel plugs” value is given as “significantly higher density of CD31-positive cells compared with controls”. Further, the “stimulatory effect on corneal neovascularization relative to VEGF” value in assay [6] (adiponectin 1 μg and 10 μg vs VEGF 100 ng) is on record as “comparable with that of VEGF”. In addition, the “neovascularization in corneal implants” value in assay [6] (pellets with adiponectin 1 μg and 10 μg) is “markedly accelerated compared with controls”. In the assay with rat cardiac myocytes (setting [9]), the “αAR-stimulated increase in protein synthesis ([3H] leucine incorporation)” value is “prevented” and the “αAR-stimulated re-organization of sarcomeric actin” value was “prevented”. Moreover, the AngII-stimulated myocyte hypertrophy result with rat cardiac myocytes (data not shown) was “suppressed”. In the assay on rat cardiac myocytes (pretreatment, then Pro 2 μM and NE 1 μM for 48 hours), the “αAR-stimulated increase in myocyte size” value is “prevented”. Also, in the assay with rat cardiac myocytes (without αAR stimulation), the “actin organization, agent alone” value is “no effect”; the “myocyte size, agent alone” value was “no effect”; the “protein synthesis, agent alone” value is “no effect”. The “αAR-stimulated ERK phosphorylation” value in the assay on ERK (Thr 202/Tyr 204) [7] (adiponectin 30 μg/ml pretreatment, Pro 2 μM, NE 1 μM) is on record as “suppressed”. In addition, the “AngII-stimulated ERK phosphorylation” value with ERK (Thr 202/Tyr 204) [7] (data not shown) is “suppressed AngII-stimulated ERK phosphorylation”. Also, the “ERK phosphorylation, agent alone” value in the assay with ERK (Thr 202/Tyr 204) [7] (without αAR stimulation) is reported as “no effect on ERK phosphorylation”. Further, in [8], the “phosphorylation of AMPK” value is “stimulated the phosphorylation of AMPK in cultured cardiac myocytes in a time-dependent manner”.
